In patent US20250302875A1 (AVENCELL EUROPE, published 2025):

T1: IL13Rα2 on cells (recombinant K562-IL13Rα2 cell line, U251-MG cells, PC3 cells) (human, UniProt Q14627 27-380)
T1 construct: whole, on cells; not repeated for the recombinant cell line; also called Interleukin-13 receptor subunit alpha-2
T1 sequence (looked up): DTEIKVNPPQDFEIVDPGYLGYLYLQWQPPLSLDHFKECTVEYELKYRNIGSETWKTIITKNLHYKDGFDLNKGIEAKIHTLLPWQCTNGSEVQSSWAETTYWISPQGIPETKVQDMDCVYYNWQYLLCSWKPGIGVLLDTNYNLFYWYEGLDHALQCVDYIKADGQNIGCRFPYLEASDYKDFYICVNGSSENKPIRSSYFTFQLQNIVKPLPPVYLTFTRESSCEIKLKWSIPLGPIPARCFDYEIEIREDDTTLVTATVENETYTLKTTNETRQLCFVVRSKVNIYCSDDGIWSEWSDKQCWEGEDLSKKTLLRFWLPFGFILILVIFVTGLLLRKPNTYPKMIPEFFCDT

T2: IL13Rα1 on recombinant K562-IL13Rα1 cell line (UniProt P78552 22-427)
T2 construct: whole, on cells
T2 sequence (looked up): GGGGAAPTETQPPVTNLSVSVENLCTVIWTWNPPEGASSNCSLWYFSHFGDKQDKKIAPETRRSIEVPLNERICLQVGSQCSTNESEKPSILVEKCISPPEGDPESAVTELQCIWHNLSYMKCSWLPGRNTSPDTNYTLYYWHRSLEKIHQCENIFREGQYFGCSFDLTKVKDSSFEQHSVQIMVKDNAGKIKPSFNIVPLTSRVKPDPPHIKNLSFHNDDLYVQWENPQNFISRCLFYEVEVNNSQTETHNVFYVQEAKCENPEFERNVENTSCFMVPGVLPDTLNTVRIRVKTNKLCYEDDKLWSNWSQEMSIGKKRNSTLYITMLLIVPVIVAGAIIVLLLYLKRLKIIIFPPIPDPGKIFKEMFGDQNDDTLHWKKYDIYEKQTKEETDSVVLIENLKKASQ

T3: soluble recombinant IL13Rα2 ectodomain (human, UniProt Q14627 27-343)
T3 construct: extracellular domain
T3 sequence (looked up): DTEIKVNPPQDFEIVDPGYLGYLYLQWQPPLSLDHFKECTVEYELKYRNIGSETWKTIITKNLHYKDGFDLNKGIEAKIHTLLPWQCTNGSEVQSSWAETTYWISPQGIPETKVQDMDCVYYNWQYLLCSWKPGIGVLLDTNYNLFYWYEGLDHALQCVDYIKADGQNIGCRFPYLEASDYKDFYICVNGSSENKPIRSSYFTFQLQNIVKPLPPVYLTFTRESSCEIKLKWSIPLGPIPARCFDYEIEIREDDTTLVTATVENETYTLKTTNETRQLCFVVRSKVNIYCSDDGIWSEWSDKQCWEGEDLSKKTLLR


What was measured:
[1] = biological target: T1, IL13Rα2 on cells (recombinant …); assay: flow cytometry, two-step immunostaining, PC3 cells
[2] = biological target: T1, IL13Rα2 on cells (recombinant …); assay: cell-based or functional assay
[3] = biological target: T2, IL13Rα1 on recombinant K562-IL13Rα1 …; assay: flow cytometry cellular binding assay on recombinant K562-IL13Rα1 cells, two-step immunostaining, MFI against TM concentration
Experimental: (§1) Cellular binding of IL13-based targeting modules (TM) was tested on recombinant K562-IL13Rα2 cell line (FIG. 2A), recombinant K562-IL13Rα1 cell line (FIG. 2B) and U251-MG cells (FIG. 2C) (derived from a malignant glioblastoma tumor by explant technique). The affinity of TMs was analyzed by FACS in a two-step immunostaining. The TMs were titrated on an AML cell line with recombinant overexpression of IL13Rα2 or IL13Rα1 or U251-MG cells, respectively, and then detected by a mouse anti-His-tag antibody conjugated to phycoerythrin. A dose-response curve was obtained when the geometric mean fluorescence (MFI) was plotted against the TM concentration.
(§2) The data were fitted using a four-parameter model with a variable slope for sigmoidal curves. The EC50 value obtained from this model can be interpreted as a representative value of the TM affinity for the cells overexpressing the target receptor.

[4] = biological target: T1, IL13Rα2 on cells (recombinant …); assay: flow cytometry cellular binding, U251-MG cells, mean
Experimental: as §2
The mean values were calculated from the results obtained from two independent experiments with three technical replicates each (see Tab. 1).

[5] = biological target: T3, soluble recombinant IL13Rα2 ectodomain; assay: SPR, Biacore X100, two-state reaction model, Ka1
Experimental: (§3) Data obtained by surface plasmon resonance were fitted with a “two-state reaction” model using the Biacore X100 Evaluation Software (V2.0.1). The following parameters were calculated from this model: association rate (kₐ), dissociation rate (kd) and the dissociation constant at equilibrium (KD).

[6] = biological target: T1, IL13Rα2 on cells (recombinant …); assay: flow cytometry, two-step immunostaining, K562-IL13Rα2 cells
Experimental: as §1, §2

[7] = biological target: T3, soluble recombinant IL13Rα2 ectodomain; assay: SPR, Biacore X100, two-state reaction model
Experimental: as §3

[8] = biological target: T1, IL13Rα2 on cells (recombinant …); assay: cell-based or functional assay; remark: listed apart in the source
[9] = biological target: T3, soluble recombinant IL13Rα2 ectodomain; assay: SPR, Biacore X100, two-state reaction model, Kd1
Experimental: as §3

[10] = biological target: T1, IL13Rα2 on cells (recombinant …); assay: flow cytometry cellular binding assay on recombinant K562-IL13Rα2 cells, two-step immunostaining (anti-His-tag-PE), absolute MFI against TM concentration, four-parameter fit
Experimental: as §1
(§4) The data for the cellular binding of IL13-based TMs on the IL13Rα2-expressing AML cell line and U251-MG cells were fitted using a four-parameter model with a variable slope for sigmoidal curves.

[11] = biological target: T3, soluble recombinant IL13Rα2 ectodomain; assay: SPR, Biacore X100, 1:1 binding model
Experimental: Data obtained by surface plasmon resonance were fitted with a “1:1 binding” model using the Biacore X100 Evaluation Software (V2.0.1). The following parameters were calculated from this model: association rate (kₐ), dissociation rate (kd) and the dissociation constant at equilibrium (KD).

[12] = biological target: T1, IL13Rα2 on cells (recombinant …); assay: flow cytometry cellular binding assay on U251-MG cells, two-step immunostaining (anti-His-tag-PE), absolute MFI against TM concentration, four-parameter fit
Experimental: as §1, §4

[13] = biological target: T2, IL13Rα1 on recombinant K562-IL13Rα1 …; assay: flow cytometry cellular binding assay on recombinant K562-IL13Rα1 cells, two-step immunostaining (anti-His-tag-PE), absolute MFI against TM concentration
Experimental: as §1

Row | EC50 [1] [nM] | EC50 of lysis of K562-IL13Rα2 cells by switchable CAR T cells [2] [pM] | EC50 of lysis of PC3 cells by switchable CAR T cells [2] [pM] | binding result [3] | EC50 [4] [nM] | kon [5] [M⁻¹ s⁻¹] | EC50 [6] [nM] | Kd [7] [nM] | EC50 (M), mean, lysis of U251-MG cells by UniCAR T cells [8] [M] | koff [9] [s⁻¹] | EC50 [10] [nM] | Kd [11] [nM] | koff [11] [s⁻¹] | kon [11] [M⁻¹ s⁻¹] | EC50 [12] [nM] | binding result [13] | Binder
1 | 1 | 6.8 | 48 | no binding (tested: 1x10^-6 M) | 2.5 | 871000 | 1.68 | 1.39 | 2.8e-11 | 0.0024 | – | – | – | – | – | – | TM-mu33A1-scFv (scFv, also called TM based on the parental murine clone 33A1; mu33A1-based TM) scFv: EFQVQLQQPGAELVKPGASVKLSCKASGYTFTSHWIHWVKERPGRGLEWIGRIEPNSGGTLYNEKFKTKATLTVDKPSSTAYMQINSLTSEDFAVYYCARWREFDFFDYWGQGTTLTVSSGGGGSGGGGSGGGGSDIVLTQSPATLSVTPGDSVSLSCRASQSISNNLHWYQQKSHESPRLLIKYASQSISGIPSRFSGSGSGTDFTLSISSVETEDFGMYFCQQSNRWPYTFGGGTKLEIKAAAKPLPEVTDEYARGGPGGGGSHHHHHHHH
2 | – | – | – | – | – | – | – | – | – | – | 26 | 30 | 0.00049 | 26000 | – | – | TM-IL13-E11Y-G30Y (ligand, not shown: small tags and cut ends) chain (part 1 of 2): GPVPPSTALRYLIEELVNITQNQKAPLCNYSMVWSINLTAGMYCAALESLINVSGCSAIEKTQRMLSGFCPHKVSAGQFSSLHVRDTKIEVAQFVKDLLLHLKKLFREGRFN chain (part 2 of 2): KPLPEVTDEYHHHHHHHH
3 | – | – | – | – | – | – | – | – | – | – | 14.1 | 21 | 0.00073 | 35000 | 1.08 | no binding (tested: about 5x10^-6 M) | TM-IL13-E11Y-M32A (ligand, not shown: small tags and cut ends) chain (part 1 of 2): GPVPPSTALRYLIEELVNITQNQKAPLCNGSAVWSINLTAGMYCAALESLINVSGCSAIEKTQRMLSGFCPHKVSAGQFSSLHVRDTKIEVAQFVKDLLLHLKKLFREGRFN chain (part 2 of 2): KPLPEVTDEYHHHHHHHH
